± gives the uncertainty stated by the source.
Assay: self-splicing fitness, log relative to wild type (ln ratio); higher = more splicing; Tetrahymena group I intron in knt gene, E. coli kanamycin selection, DiMSum; sequences stand for … in CUCUCU…GGAGGGAAAAGUUAUCAGGCAUGCACCUGGUAGCUAGUCUUUAAACCAAUAGAUUGCAUCGGUUUAAAAGGCAAGACCGUCAAAUUGCGGGAAAGGGGUCAACAGCCGUUCAGUACCAAGUCUCAGGGGAAACUUUGAGAUGGCCUUGCAAAGGGUAUGGUAAUAAGCUGACGGACAUGGUCCUAACCACGCAGCCAAGUCCUAAGUCAACAGAUCUUCUGUUGAUAUGGAUGCAGUUCACAGACUAAAUGUCGGUCGGGGAAGAUGUAUUCUUCUCAUAAGAUAUAGUCGGACCUCUCCUUAAUGGGAGCUAGCGGAUGAAGUGAUGCAACACUGGAGCCGCUGGGAACUAAUUUGUAUGCGAAAGUAUAUUGAUUAGUUUUGGAGUACUCGUGGUCG
Outline: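 Library with all eight P1ex-region intron nucleotides randomised, intron inside the knt kanamycin-resistance gene on pET-22b(+), in E. coli BL21(DE3). Cells grew overnight at 37°C or 30°C on LB agar with or without 25 μg/mL kanamycin (plus 100 μg/mL carbenicillin, 50 μM IPTG, 0.2% rhamnose), in six replicate transformations. Pooled colonies were amplicon-sequenced on Illumina HiSeq 2500. DiMSum fitness is the error-weighted combination of wild-type-normalised replicate fold changes, kanamycin versus none.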

| Sequence | self-splicing fitness (ln) (30 °C) | self-splicing fitness (ln) (37 °C) |
| --- | --- | --- |
| CGUAAGCAAUAUUACGGAAU | -3.8 ± 0.43 | -1.85 ± 0.22 |
| UACCAGCAAUAUUACGCACU | -0.478 ± 0.063 | 0.393 ± 0.081 |
| AAAAAGCAAUAUUACGAUUC | -0.58 ± 0.091 | -0.42 ± 0.12 |
| CGUGAGCAAUAUUACGCGCC | -2.85 ± 0.36 | -1.95 ± 0.28 |
| ACUUAGCAAUAUUACGUAAA | -2.37 ± 0.2 | -0.419 ± 0.2 |
| AACGAGCAAUAUUACGGAGA | -3.61 ± 0.26 | -2.8 ± 0.28 |
| AGAUAGCAAUAUUACGACGA | -0.422 ± 0.095 | -0.749 ± 0.085 |
| GUCCAGCAAUAUUACGUGCC | -1.16 ± 0.086 | -0.944 ± 0.11 |
| GUGGAGCAAUAUUACGCUUC | -3.26 ± 0.2 | -3.69 ± 0.42 |
| CUUAAGCAAUAUUACGGUCU | -4.28 ± 0.26 | -2.64 ± 0.29 |
| UAGCAGCAAUAUUACGGGAU | -4.22 ± 0.39 | -2.7 ± 0.26 |
| GAGGAGCAAUAUUACGUCUU | -3.65 ± 0.2 | -2.35 ± 0.23 |
| GGUUAGCAAUAUUACGGGAG | -3.49 ± 0.24 | -2.55 ± 0.25 |
| GUAAAGCAAUAUUACGCUGU | -0.603 ± 0.083 | -1.16 ± 0.12 |
| UCUAAGCAAUAUUACGUUUG | -3.95 ± 0.3 | -2.4 ± 0.24 |
| CAGCAGCAAUAUUACGUACG | -0.121 ± 0.08 | 0.866 ± 0.11 |
| AUAGAGCAAUAUUACGACUC | -0.707 ± 0.11 | -0.0412 ± 0.15 |
| GUGAAGCAAUAUUACGAGGA | – | -0.805 ± 0.32 |
| CGUAAGCAAUAUUACGCCCU | -1.4 ± 0.16 | -0.426 ± 0.16 |
| CUGAAGCAAUAUUACGCAAA | -4.27 ± 0.42 | – |

| Sequence | self-splicing fitness (ln) (30 °C) | self-splicing fitness (ln) (37 °C) |
| --- | --- | --- |
| CGACAGCAAUAUUACGGACU | -0.957 ± 0.072 | -0.875 ± 0.11 |
| CUAUAGCAAUAUUACGUCCA | -4.03 ± 0.36 | -3.13 ± 0.4 |
| UGUUAGCAAUAUUACGUUUU | -3.9 ± 0.33 | -2.19 ± 0.24 |
| UGACAGCAAUAUUACGCUUU | -3.43 ± 0.2 | -2.54 ± 0.26 |
| ACUCAGCAAUAUUACGCUUG | -1.83 ± 0.069 | -0.599 ± 0.083 |
| UUACAGCAAUAUUACGAAUC | -3.27 ± 0.27 | -2.13 ± 0.3 |
| ACAAAGCAAUAUUACGCACC | -0.449 ± 0.19 | 0.128 ± 0.2 |
| CGAGAGCAAUAUUACGAGAA | – | -1.69 ± 0.43 |
| GAAUAGCAAUAUUACGCACG | -1.22 ± 0.15 | -0.764 ± 0.2 |
| CGCUAGCAAUAUUACGCACA | -1.37 ± 0.13 | -0.405 ± 0.1 |
| AUAGAGCAAUAUUACGGUUC | -3.21 ± 0.24 | -1.29 ± 0.22 |
| GUUUAGCAAUAUUACGGAGU | -2.3 ± 0.13 | -1.63 ± 0.12 |
| CUUUAGCAAUAUUACGCUCU | -2.15 ± 0.22 | -1.3 ± 0.26 |
| ACCUAGCAAUAUUACGCAUA | -2 ± 0.2 | -1.85 ± 0.16 |
| UAGAAGCAAUAUUACGUAGC | -3.74 ± 0.26 | -2.43 ± 0.23 |
| CGGCAGCAAUAUUACGGCCG | -3.13 ± 0.39 | -1.42 ± 0.39 |
| UACGAGCAAUAUUACGUCCA | -2.8 ± 0.27 | -1.69 ± 0.27 |
| ACGGAGCAAUAUUACGUUGU | -3.46 ± 0.14 | -2.07 ± 0.13 |
| GGGCAGCAAUAUUACGCGCA | -0.298 ± 0.13 | -0.184 ± 0.13 |

From the supplement of paper PMC7877785
